Numbered stars: 1 amine (or outer) side, 2 acyl side, 3 side chain; on linkers, the order of the positions; unused ones are H or OH. Square brackets hold non-standard residues; d marks the D form. Side chains are listed from the residue outwards. Ends that are not written are not given here. * marks the point of attachment. γGlu = O=C(O)[C@H](CCC(=O)[*:2])N[*:1]; Palmitoyl = CCCCCCCCCCCCCCCC(=O)*; Met(O) = CS(=O)CC[C@H](N)C(=O)O; Nle = CCCC[C@H](N)C(=O)O; Orn = NCCC[C@H](N)C(=O)O; Dab = NCC[C@H](N)C(=O)O; Dap = NC[C@H](N)C(=O)O; Aib = CC(C)(N)C(=O)O; Carbamoyl = NC(=O)*; βAla = NCCC(=O)O; Acm = CC(=O)NC*
B1: Peptide 83 (Table 10) (peptide)
peptide: H[Aib]QGTFTSDK([γGlu-γGlu-Palmitoyl])SKYLD[Aib]RRAQDFVQWLMNT-NH2
B2: Peptide 84 (Table 10) (peptide)
peptide: H[Aib]QGTFTSDK([βAla-βAla-Palmitoyl])SKYLD[Aib]RRAQDFVQWLMNT-NH2
modifications: N-terminus assumed
SMILES: CCCCCCCCCCCCCCCC(=O)NCCC(=O)NCCC(=O)NCCCC[C@H](NC(=O)[C@H](CC(=O)O)NC(=O)[C@H](CO)NC(=O)[C@@H](NC(=O)[C@H](Cc1ccccc1)NC(=O)[C@@H](NC(=O)CNC(=O)[C@H](CCC(N)=O)NC(=O)C(C)(C)NC(=O)[C@@H](N)Cc1c[nH]cn1)[C@@H](C)O)[C@@H](C)O)C(=O)N[C@@H](CO)C(=O)N[C@@H](CCCCN)C(=O)N[C@@H](Cc1ccc(O)cc1)C(=O)N[C@@H](CC(C)C)C(=O)N[C@@H](CC(=O)O)C(=O)NC(C)(C)C(=O)N[C@@H](CCCNC(=N)N)C(=O)N[C@@H](CCCNC(=N)N)C(=O)N[C@@H](C)C(=O)N[C@@H](CCC(N)=O)C(=O)N[C@@H](CC(=O)O)C(=O)N[C@@H](Cc1ccccc1)C(=O)N[C@H](C(=O)N[C@@H](CCC(N)=O)C(=O)N[C@@H](Cc1c[nH]c2ccccc12)C(=O)N[C@@H](CC(C)C)C(=O)N[C@@H](CCSC)C(=O)N[C@@H](CC(N)=O)C(=O)N[C@H](C(N)=O)[C@@H](C)O)C(C)C
B3: Peptide J backbone, C(Acm) at position 3 (peptide)
peptide: HSC(Acm)GTFTSDYSKYLDTRRAAEFVAWL[Nle]DE
B4: Peptide J backbone, M(O) at position 3 (peptide)
peptide: HS[Met(O)]GTFTSDYSKYLDTRRAAEFVAWL[Nle]DE
B5: Peptide J backbone, Dab(Ac) at position 3 (peptide)
peptide: HS[Dab](Ac)GTFTSDYSKYLDTRRAAEFVAWL[Nle]DE
B6: Peptide K backbone, Dab(Ac) at position 3 (peptide)
peptide: HS[Dab](Ac)GTFTSDYSKYLD[Aib]RRAADFVAWLMDE
B7: Peptide K backbone, Q at position 3 (peptide)
peptide: HSQGTFTSDYSKYLD[Aib]RRAADFVAWLMDE
B8: Peptide J backbone, Orn(Ac) at position 3 (peptide)
peptide: HS[Orn](Ac)GTFTSDYSKYLDTRRAAEFVAWL[Nle]DE
B9: Peptide J backbone, Q at position 3 (peptide)
peptide: HSQGTFTSDYSKYLDTRRAAEFVAWL[Nle]DE
B10: Peptide J backbone, Dap(urea) at position 3 (peptide)
peptide: HS[Dap](Carbamoyl)GTFTSDYSKYLDTRRAAEFVAWL[Nle]DE

Biological target: GLP-1 receptor (UniProt P43220 24-463, limits assumed)
Assay: cell-based or functional assay

Row | Binder | EC50 at GLP-1 Receptor
1 | B1 | 0.043 nM
2 | B2 | 0.004 nM

Biological target: glucagon receptor (human, UniProt P47871 26-477)
Sequence (P47871 26-477): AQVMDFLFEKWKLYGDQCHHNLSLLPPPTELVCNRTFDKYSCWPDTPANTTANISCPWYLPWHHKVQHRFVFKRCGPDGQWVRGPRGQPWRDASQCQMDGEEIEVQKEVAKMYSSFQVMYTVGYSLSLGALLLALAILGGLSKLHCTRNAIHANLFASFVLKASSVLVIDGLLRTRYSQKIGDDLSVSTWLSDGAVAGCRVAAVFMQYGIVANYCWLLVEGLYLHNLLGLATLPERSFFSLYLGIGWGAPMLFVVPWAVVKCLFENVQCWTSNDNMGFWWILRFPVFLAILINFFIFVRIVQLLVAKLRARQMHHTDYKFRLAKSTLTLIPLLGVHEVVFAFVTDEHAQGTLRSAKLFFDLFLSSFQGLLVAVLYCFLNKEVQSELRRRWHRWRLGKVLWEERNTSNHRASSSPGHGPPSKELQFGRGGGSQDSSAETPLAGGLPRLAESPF
Assay: cell-based or functional assay

Row | Binder | % activity* | EC50 at Glucagon Receptor
3 | B3 | 33% | –
4 | B4 | 7% | 0.91 nM
5 | B5 | 19% | 0.31 nM
6 | B6 | 86% | 0.07 nM
7 | B7 | 15% | –
8 | B8 | 7% | 0.92 nM
9 | B9 | 25% | –
10 | B10 | 13% | 0.48 nM
